{
  "source": "paper PMC12669751",
  "about": "“Immunodominant antibodies against hemagglutinin in ferrets following infection with 2018 to 2019 influenza vaccine strains” (NPJ Vaccines, 2025)",
  "binders": {"B1": {"name": "monoclonal antibody FluA-20 (antibody, V domains shown)", "VH": "QVQLEESGPGLVKPSETLSLTCSVSGVSVTSDIYYWTWIRQPPGKGLEWIGYIFYNGDTNYNPSLKSRVTMSIDTSKNEFSLRLTSVTAADTAVYFCARGTEDLGYCSSGSCPNHWGQGTLVTVSS", "VL": "DIVMTQSPSSLSASIGDRVTITCRPSQNIRSFLNWFQHKPGKAPKLLIYAASNLQSGVPSRFSGSGSGTEFTLTIRSLQPEDFATYYCQQSYNTPPTFGQGTKVEIK", "notes": "also called FluA-20 mAb; pan-H3 anti-HA1 mAb; copies: 2 + 2"}},
  "target": "TX/50 egg-version rHA1 (Influenza A virus A/Texas/50/2012 …, UniProt R4L1D1, strain)",
  "experiment": "BLI",
  "settings": "one partner purified",
  "data": [
    {"binder": "B1", "values": [
      {"measurement": "binding result", "value": "binds"}
    ]}
  ]
}
